{"source": "the RNAGym collection of RNA variant scans (doi:10.1101/gr.219683.116)", "parents": {"B1": {"name": "mRNA-splicing (parent)", "chain": "AGUUGCUGCUGGGAGCUCCAGCACAGUGAAAUGGACAGAAGGGCAGAGCAA"}}}
{"variants_of": "B1", "assay": "exon inclusion enrichment index; higher = more inclusion; WT1 exon 5 minigene, HEK293"}
{"variant": "G5C C6G U7C U10C A45G G46A", "exon inclusion enrichment index": 6.29}
{"variant": "G5C C6G U7C U10C A45G G46U", "exon inclusion enrichment index": 3.14}
{"variant": "G5C C6G U7C U10C A45G G46C", "exon inclusion enrichment index": 3.05}
{"variant": "G5C C6G U7C U10C A47G", "exon inclusion enrichment index": 0.871}
{"variant": "G5C C6G U7C U10C A47C", "exon inclusion enrichment index": 3.06}
{"variant": "G5C C6G U7C U10C A47U", "exon inclusion enrichment index": 3.3}
{"variant": "G5C C6G U7C U10C A29C A30G", "exon inclusion enrichment index": 5.17}
{"variant": "G5C C6G U7C U10C A29C A30C", "exon inclusion enrichment index": 3.82}
{"variant": "G5C C6G U7C U10C A29C A30U", "exon inclusion enrichment index": 3.02}
{"variant": "G5C C6G U7C U10C G13A", "exon inclusion enrichment index": 3.34}
{"variant": "G5C C6G U7C U10C G13C", "exon inclusion enrichment index": 1.53}
{"variant": "G5C C6G U7C U10C G13U", "exon inclusion enrichment index": 0.534}
{"variant": "G5C C6G U7C U10C G13A A14G", "exon inclusion enrichment index": 3.3}
{"variant": "G5C C6G U7C U10C G13A A14C", "exon inclusion enrichment index": 3.48}
{"variant": "G5C C6G U7C U10C G13A A14U", "exon inclusion enrichment index": 2.93}
{"variant": "G5C C6G U7C U10C A45C G46C", "exon inclusion enrichment index": 2.31}
{"variant": "G5C C6G U7C U10C A45C G46A", "exon inclusion enrichment index": 2.12}
{"variant": "G5C C6G U7C U10C A45C G46U", "exon inclusion enrichment index": 1.87}
{"variant": "G5C C6G U7C U10C C22U A23U", "exon inclusion enrichment index": 2.76}
{"variant": "G5C C6G U7C U10C C22U A23G", "exon inclusion enrichment index": 3.6}
{"variant": "G5C C6G U7C U10C C22U A23C", "exon inclusion enrichment index": 2.02}
{"variant": "G5C C6G U7C U10C C16G U17C", "exon inclusion enrichment index": 2.62}
{"variant": "G5C C6G U7C U10C C16G U17A", "exon inclusion enrichment index": 4.71}
{"variant": "G5C C6G U7C U10C C16G U17G", "exon inclusion enrichment index": 1.27}
{"variant": "G5C C6G U7C U10C A23U C24A", "exon inclusion enrichment index": 2.3}
{"variant": "G5C C6G U7C U10C A23U C24U", "exon inclusion enrichment index": 0.822}
{"variant": "G5C C6G U7C U10C A23U C24G", "exon inclusion enrichment index": 3.71}
{"variant": "G5C C6G U7C U10C A35G C36G", "exon inclusion enrichment index": 0.751}
{"variant": "G5C C6G U7C U10C A35G C36U", "exon inclusion enrichment index": 0.0687}
{"variant": "G5C C6G U7C U10C A35G C36A", "exon inclusion enrichment index": 2.07}
{"variant": "G5C C6G U7C U10C C16A", "exon inclusion enrichment index": 4.33}
{"variant": "G5C C6G U7C U10C C16G", "exon inclusion enrichment index": 2.97}
{"variant": "G5C C6G U7C U10C C16U", "exon inclusion enrichment index": 4.22}
{"variant": "G5C C6G U7C U10C C24G A25U", "exon inclusion enrichment index": 3.91}
{"variant": "G5C C6G U7C U10C C24G A25C", "exon inclusion enrichment index": 4.6}
{"variant": "G5C C6G U7C U10C C24G A25G", "exon inclusion enrichment index": 2.96}
{"variant": "G5C C6G U7C U10C A37U", "exon inclusion enrichment index": 3.22}
{"variant": "G5C C6G U7C U10C A37G", "exon inclusion enrichment index": 4.39}
{"variant": "G5C C6G U7C U10C A37C", "exon inclusion enrichment index": 4.16}
{"variant": "G5C C6G U7C U10C C36G A37U", "exon inclusion enrichment index": 2.09}
{"variant": "G5C C6G U7C U10C C36G A37C", "exon inclusion enrichment index": 1.47}
{"variant": "G5C C6G U7C U10C C36G A37G", "exon inclusion enrichment index": 1.19}
{"variant": "G5C C6G U7C U10C G12C", "exon inclusion enrichment index": 0.252}
{"variant": "G5C C6G U7C U10C G12A", "exon inclusion enrichment index": 2.53}
{"variant": "G5C C6G U7C U10C G12U", "exon inclusion enrichment index": 1.53}
{"variant": "G5C C6G U7C U10C G21C C22G", "exon inclusion enrichment index": 4.61}
{"variant": "G5C C6G U7C U10C G21C C22U", "exon inclusion enrichment index": 3.43}
{"variant": "G5C C6G U7C U10C G21C C22A", "exon inclusion enrichment index": 3.02}
{"variant": "G5C C6G U7C U10C A23C C24A", "exon inclusion enrichment index": 3.49}
{"variant": "G5C C6G U7C U10C A23C C24U", "exon inclusion enrichment index": 2.07}
{"variant": "G5C C6G U7C U10C A23C C24G", "exon inclusion enrichment index": 5.29}
{"variant": "G5C C6G U7C U10C A39C A40C", "exon inclusion enrichment index": 3.63}
{"variant": "G5C C6G U7C U10C A39C A40U", "exon inclusion enrichment index": 1.72}
{"variant": "G5C C6G U7C U10C A39C A40G", "exon inclusion enrichment index": 3.52}
{"variant": "G5C C6G U7C U10C A29C", "exon inclusion enrichment index": 3.11}
{"variant": "G5C C6G U7C U10C A29G", "exon inclusion enrichment index": 3.72}
{"variant": "G5C C6G U7C U10C A29U", "exon inclusion enrichment index": 1.68}
{"variant": "G5C C6G U7C U10C A14U G15C", "exon inclusion enrichment index": 1.8}
{"variant": "G5C C6G U7C U10C A14U G15U", "exon inclusion enrichment index": 1.46}
{"variant": "G5C C6G U7C U10C A14U G15A", "exon inclusion enrichment index": 1.41}
{"variant": "G5C C6G U7C U10C C22G A23G", "exon inclusion enrichment index": 2.57}
{"variant": "G5C C6G U7C U10C C22G A23U", "exon inclusion enrichment index": 1.01}
{"variant": "G5C C6G U7C U10C C22G A23C", "exon inclusion enrichment index": 2.56}
{"variant": "G5C C6G U7C U10C G33C G34C", "exon inclusion enrichment index": 2.29}
{"variant": "G5C C6G U7C U10C G33C G34U", "exon inclusion enrichment index": 2.86}
{"variant": "G5C C6G U7C U10C G33C G34A", "exon inclusion enrichment index": 2.48}
{"variant": "G5C C6G U7C U10C A23G C24G", "exon inclusion enrichment index": 4.88}
{"variant": "G5C C6G U7C U10C A23G C24U", "exon inclusion enrichment index": 1.96}
{"variant": "G5C C6G U7C U10C A23G C24A", "exon inclusion enrichment index": 4.41}
{"variant": "G5C C6G U7C U10C G21U", "exon inclusion enrichment index": 2.48}
{"variant": "G5C C6G U7C U10C G21C", "exon inclusion enrichment index": 3.41}
{"variant": "G5C C6G U7C U10C G21A", "exon inclusion enrichment index": 2.93}
{"variant": "G5C C6G U7C U10C A31C U32A", "exon inclusion enrichment index": 2.89}
{"variant": "G5C C6G U7C U10C A31C U32G", "exon inclusion enrichment index": 3.82}
{"variant": "G5C C6G U7C U10C A31C U32C", "exon inclusion enrichment index": 3.85}
{"variant": "G5C C6G U7C U10C A35C", "exon inclusion enrichment index": 1.69}
{"variant": "G5C C6G U7C U10C A35G", "exon inclusion enrichment index": 1.93}
{"variant": "G5C C6G U7C U10C A35U", "exon inclusion enrichment index": 1.25}
{"variant": "G5C C6G U7C U10C G13U A14G", "exon inclusion enrichment index": 1.28}
{"variant": "G5C C6G U7C U10C G13U A14U", "exon inclusion enrichment index": 1.35}
{"variant": "G5C C6G U7C U10C G13U A14C", "exon inclusion enrichment index": 1.67}
{"variant": "G5C C6G U7C U10C A40G G41U", "exon inclusion enrichment index": 3.4}
{"variant": "G5C C6G U7C U10C A40G G41A", "exon inclusion enrichment index": 1.99}
